Experimental findings from the supplement of paper PMC10724198 are described below.

± gives the standard deviation of the averaged measurements.
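Note: PSI is a weighted mean of sequencing reads over stability bins, variants kept only with over 10 reads, mCherry proximal and sfGFP distal, peptide attached via GGGS linker.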

For this series, the system named is Saccharomyces cerevisiae. The series is described as follows: protein stability index of tFT-peptide fusion (C-terminal peptide) (PSI (0-1 scale)); higher = more stable (slower turnover). The conditions noted are these: genetic background: wild type; temperature: 30 C.
Sequence SPCARPPPFPAR showed a protein stability index of 0.724 ± 0.034.

SPCLLPPPRSSP: the protein stability index came out at 0.737 ± 0.027.

For SPCRSPPPDLPQ, the protein stability index is 0.645 ± 0.1.

SPFLTPPPPRPA registered a protein stability index of 0.682 ± 0.024.

Consider SPFPPLPSRPPP, for which the protein stability index worked out at 0.676 ± 0.0097.

SPFSPTAPPPPP had a protein stability index of 0.718 ± 0.017.

In the case of SPHPLLSSPPPA, the protein stability index amounted to 0.686 ± 0.075.

Consider SPIIVCLFDLGF, for which the protein stability index was determined as 0.654 ± 0.037.

The sequence SPLLFLLPPAAP returned a protein stability index of 0.692 ± 0.062.

Take SPLLPFPLPPSI: the protein stability index worked out at 0.718 ± 0.018.

In turn, SPLPADSHPLPP showed a protein stability index of 0.667 ± 0.015.

The sequence SPLPPPLPPFPP registered a protein stability index of 0.6171 ± 0.0056.

SPLPRPHRGPPP registered a protein stability index of 0.58 ± 0.054.

Take SPMELEHSSAVP: the protein stability index was determined as 0.6605 ± 0.0046.

Regarding SPPAALLPLFLR, the protein stability index came out at 0.676 ± 0.051.

SPPAPLPPPLPR yielded a protein stability index of 0.648 ± 0.025.

SPPFLPPLITFP returned a protein stability index of 0.681 ± 0.023.

Sequence SPPLPPLGFNPP had a protein stability index of 0.6414 ± 0.0025.

SPPPARLLPPPS showed a protein stability index of 0.723 ± 0.12.

Take SPPPLPHPPAAS: the protein stability index was 0.698 ± 0.023.

On to SPPPLPPPPPSP, for which the protein stability index is 0.68 ± 0.036.

Regarding SPPPPLTSLVPP, the protein stability index worked out at 0.688 ± 0.075.

In the case of SPPPPPLPPAYL, the protein stability index stood at 0.681 ± 0.012.

SPPPPPLPPPHP: the protein stability index is 0.6564 ± 0.0035.

Turning to SPPPPQEADYVV, the protein stability index was determined as 0.62 ± 0.026.

SPPPPRAPTPPP displayed a protein stability index of 0.698 ± 0.035.

Take SPPPPSRPTLPP: the protein stability index was 0.593 ± 0.011.

SPPPRSPRPFPG: the protein stability index worked out at 0.6757 ± 0.0012.

In the case of SPPPSPAPPPPP, the protein stability index was determined as 0.684 ± 0.083.

Consider SPPPSSSPPPSP, for which the protein stability index amounted to 0.612 ± 0.03.

SPPPTPPGLLLL showed a protein stability index of 0.694 ± 0.012.

Take SPPPTSQHSGPP: the protein stability index amounted to 0.657 ± 0.042.

Consider SPPRATVRPTSP, for which the protein stability index is 0.824 ± 0.078.

The sequence SPPRPSSPRASP yielded a protein stability index of 0.664 ± 0.074.

SPPSFLPLPLPS displayed a protein stability index of 0.675 ± 0.033.

SPPSHPHRPTFP yielded a protein stability index of 0.753 ± 0.28.

SPPSPLSLPLPS registered a protein stability index of 0.707 ± 0.014.

For SPPTEPFPDPTH, the protein stability index is 0.6628 ± 0.0053.

In turn, SPQRAHLHHHPT displayed a protein stability index of 0.654 ± 0.026.

SPRISSCSPFDS displayed a protein stability index of 0.726 ± 0.036.

For the sequence SPRPSVLPPLSL, the protein stability index is 0.734 ± 0.011.

Sequence SPRVKEVSREIR registered a protein stability index of 0.689 ± 0.045.

SPRVSRRVLPSF returned a protein stability index of 0.6696 ± 0.0027.

SPRYLLFSLRSP showed a protein stability index of 0.714 ± 0.11.

For SPSFPPHRPPQH, the protein stability index worked out at 0.724 ± 0.066.

In the case of SPSHSVSGPLSF, the protein stability index was 0.648 ± 0.014.

Turning to SPSLPQLLDPPS, the protein stability index stood at 0.711 ± 0.011.

In turn, SPSLSFVFPVSL yielded a protein stability index of 0.756 ± 0.039.

Regarding SPSPHPQPLIPL, the protein stability index came to 0.681 ± 0.03.

On to SPSPPLPFSRPP, for which the protein stability index was found to be 0.686 ± 0.044.

SPSPPPASPPAP displayed a protein stability index of 0.654 ± 0.14.

In turn, SPSRHPSPPKPP returned a protein stability index of 0.607 ± 0.021.

In turn, SPSSSPLSPFPL yielded a protein stability index of 0.713 ± 0.084.

Sequence SPSTSPPPSSSS came in with a protein stability index of 0.697 ± 0.042.

Sequence SPSYACLPPPIP registered a protein stability index of 0.7461 ± 0.0032.

On to SPTPLDPLRAPL, for which the protein stability index was determined as 0.6902 ± 0.0027.

For SPTPPPPPPRPP, the protein stability index is 0.581 ± 0.018.

Take SPVPLPPPLPSL: the protein stability index came out at 0.664 ± 0.023.

Sequence SPVPVTFSLLTR showed a protein stability index of 0.698 ± 0.0082.

Consider SPVRLSSVPRPY, for which the protein stability index was 0.683 ± 0.019.

The sequence SPWLSSRFRVPR yielded a protein stability index of 0.686 ± 0.021.

SPWMSKNGQSSD: the protein stability index is 0.622 ± 0.02.

On to SPWWAPPSPPYP, for which the protein stability index came out at 0.582 ± 0.015.

Take SQAFPPADLRPR: the protein stability index is 0.719 ± 0.058.
